A short description of data set [1]: Protein yield of PodA variants purified from inclusion bodies of overexpression culture. The note with it: purified from inclusion bodies, per L of E. coli overexpression culture. As for the experimental part: Protein overproduction and purification of soluble and inclusion body fractions. Plasmids coding for proteins of interest were transformed into E. coli BL21 […]. […]. Cultures were grown at 37° C. with shaking to an optical density of 0.4 (OD600 nm) and plasmid expression was induced with IPTG (50 μM) and shaken overnight at 16° C. Cells were harvested by centrifugation at 5,000×g for 10 min in a Beckman Coulter Avanti J-20 XOI refrigerated centrifuge using a JLA-8.1000 rotor at 4° C. Cell pellets were stored at −80° C. until used.
For purification of PodA from inclusion bodies, the pellets remaining following lysis and centrifugation at 40,000×g were resuspended in 20 mL of detergent buffer [50 mM HEPES (pH 7.5) and 1% Triton-X (v/v)] using a Bio-gen PRO200 cell homogenizer (PRO Scientific). Sample was spun for 15 min at 40,000×g at 4° C. in a Beckman Coulter Avanti centrifuge with a JA-25.50 rotor. Supernatant was discarded and the remaining cell pellet was resuspended in 5 mL of buffer [50 mM HEPES (pH 7.5), 500 mM NaCl] using a cell homogenizer, supplemented with lysozyme (200 μg mL^−1), and incubated for 10 min. Volume was increased to 20 mL with HEPES (50 mM, pH 7) and sample was spun for 40,000×g at 4° C. for 15 min. Supernatant was discarded and pellet was homogenized in 10 mL of denaturing buffer 50 mM HEPES (pH 7.5), 500 mM NaCl, and 8M urea) and incubating rocking overnight. The sample was spun at for 40,000×g at 25° C. for 30 min and supernatant was incubated with 1 mL HisPur Ni-NTA resin (Thermo Fisher Scientific) on a rocking platform for 10 min. Beads were allowed to settle without shaking, supernatant was discarded, and resin was pipetted into glass gravity columns. Resin was washed with 15 mL of denaturing buffer, followed by an elution with denaturing buffer supplemented with imidazole (500 mM). Fractions were analyzed by SDS-PAGE and those containing protein were combined into SnakeSkin 3.5 K MWCO dialysis tubing (Thermo Fisher Scientific). Urea was slowly dialyzed out in HEPES (50 mM, pH 7.5) and NaCl (500 mM) by lowing urea concentrations by 1 M increments. Each step was dialyzed at RT for 30 min. Protein was dialyzed in HEPES (50 mM, pH 7.5), NaCl (500 mM), and imidazole (20 mM) overnight at 4° C. The following day, protein was cleaved for 3 h at 25° C. with TEV protease (1:50 mg:mg ratio of TEV to PodA). The sample was applied to a HisPur gravity column and cleaved protein in the flow thru was confirmed by SDS-PAGE. Cleaved PodA protein was then dialyzed for storage for 3 h at 4° C. in HEPES (50 mM pH 7.5), NaCl (250 mM) and finally in HEPES (50 mM, pH 7.5), NaCl (100 mM), and glycerol (20%, v/v). Protein concentration was established on a NanoDrop™ using the extinction coefficient and MW of each protein. Protein was drop frozen in LN2 and stored at −80° C. until use.

A short description of data set [2]: Activity after boiling (kinetic stability). Type of data set: physicochemical. The settings on record: after 30 and 60 min of boiling; PodA 3 μM, PYO 100 μM. As for the experimental part:
FIG. 13. Activity of WT PodA30-162 and PodA10 after boiling. Protein was boiled as described in Materials and Methods, followed by an activity assay with PodA (3 μM) and PYO (100 μM) in a Spectramax M3 plate reader monitoring PYO absorbance (690 nm) overtime. Specific activity (nmol min-1 mg-1) was calculated for each sample. Replicates of PodA^WT un-boiled were averaged and set to 100% activity (dashed line). All other activities of boiled samples were compared to this value and presented as a percentage. Data represent technical triplicates and error bars represent standard deviation. A t-test was completed, with * representing a p-value<0.05 and ns representing not significant.
Due to the high thermal stability of PodA, stability assays that rely on monitoring protein unfolding over a temperature gradient were not suitable for the related testing. Therefore the enzyme's kinetic stability were analyzed by boiling WT PodA41-162 and PodA10 and measuring activity of each protein after specified boiling times. […] We also noted that several designed mutations in PodA8 and PodA10 were not prevalent in a multiple-sequence alignment of PodA homologs (FIG. 14), indicating the importance of the atomistic calculations to design success

Data set [3] has as its system P. aeruginosa strain PA14. The data set can be described thus: PodA and tobramycin liquid (planktonic) synergy experiments. Format: cell-based, Pseudomonas aeruginosa. The settings on record: LB; PodA10 5 μM; compared to individual antibiotic controls. As for the experimental part: Pseudomonas aeruginosa PodA and tobramycin liquid synergy experiments. For planktonic synergy experiments, starter cultures were grown 24 h at 37° C. shaking in LB. Stationary phase cultures (usually between OD500 4-6) were aliquoted (100 μL) into 96-well clear bottom flat well plates (VWR). Antibiotics and PodA were diluted into stock concentrations to pipette 5 μL antibiotic and 2 μL PodA per well. Antibiotics were diluted into water and PodA was diluted into 50 mM HEPES (pH 7.5). Plates were incubated in a humidity Tupperware chamber lined with wet paper towel at 37° C. for 10 h. After incubation, wells were pipetted to resuspend, and each well was diluted 1:10 into fresh LB. From that mixture, 10 μL of diluted cells were pipetted into 90 μL fresh LB in 96-well flat bottom plates. Mineral Oil, light (65 μL undiluted, Sigma-Aldrich) was pipetted onto top of cultures to prevent dehydration and allow for oxygen diffusion. Microtiter plates were incubated at 37° C. inside a temperature-controlled chamber of a BioTek Synergy 4 plate reader. […] Cells from each 10 μL drips dilution were counted if colonies were between 10-100.
PodA10 and tobramycin cell treatments (same samples from FIG. 8) were diluted in series and dilutions were plated onto LB agar. Cells were counted if a dilution contained 10-100 colonies. […]

B1: PodA10: Designed PodA41-162 variant: A53N, I73T, A87V, M99V, A129T; SEQ ID NO: 4 (protein)
chain: MVTMTLDVKNDQVNKHDFGKPGMDVGDMDIFSDTLSVDGKQVGYDGGVCFFTNVTPDNPVTYCELTIHLDAGEIFARSLTPATLAPFTMTITGGTGEYANSKGELTVSGVATPDEKYELKLTK
For B1, in data set [1], the Yield came out at 5.92 mg/L^−1. In addition, the Activity after boiling result in data set [2] is “significantly higher activity compared to WT PodA30-162”. Besides, the “cell viability (CFUs)” value in data set [3] is on record as “did not increase cell death”.

For the origin of these results see patent US12427188B2, “Pyocyanine demethylases and related phenazine degrading agents compositions, methods and systems for interfering with viability of bacteria” (priority 2020, dated 2025).
